Legend:
[1] = target: FLAG tagged chimeric IL-10R1/CRF2-12 receptor (IL-10R1 extracellular domain fused to the transmembrane and intracellular domains of CRF2-12) on HT-29 cells (human) (UniProt Q13651); assay: cell-based or functional assay
[2] = target: T1, chimeric human CRF2-12/γR1 chain expressed alone on hamster 16-9 cells (human, UniProt P15260 246-489); assay: flow cytometry with anti-FLAG antibody on transfected hamster cells
T1 construct: domain: transmembrane and intracellular domains; On the cell surface of hamster 16-9 cells, without human CRF2-4; also called CRF2-12/IFN-γR1; CRF2-12/gR1
T1 sequence: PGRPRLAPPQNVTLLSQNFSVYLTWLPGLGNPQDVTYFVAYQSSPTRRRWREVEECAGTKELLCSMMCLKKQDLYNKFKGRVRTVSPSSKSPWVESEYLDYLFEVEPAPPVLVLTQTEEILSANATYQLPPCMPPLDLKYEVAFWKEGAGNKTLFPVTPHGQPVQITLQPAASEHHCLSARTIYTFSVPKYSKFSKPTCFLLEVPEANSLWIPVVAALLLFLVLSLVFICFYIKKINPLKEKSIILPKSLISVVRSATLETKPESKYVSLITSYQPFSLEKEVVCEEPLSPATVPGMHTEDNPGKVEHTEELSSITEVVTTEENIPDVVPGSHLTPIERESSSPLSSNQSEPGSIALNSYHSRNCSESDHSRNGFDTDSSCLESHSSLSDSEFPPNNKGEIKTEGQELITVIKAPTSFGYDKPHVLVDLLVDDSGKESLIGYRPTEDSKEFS
Description: (§1) A. Four cell lines used in these experiments are schematically shown (top panels): the parental Chinese hamster 16-9 cells and cells expressing the human CRF2-12/gR1 chimeric receptor or human IL-10R2 alone or both receptors together. […] The cells were also tested for their ability to bind FL-IFN-λs (panels E, F, G, H and I). The cells were incubated for three hours at 20° C. with conditioned medium from COS-1 cells transfected with one of the following plasmids: the control vector pEF-SPFL (open areas, thick lines); the pEF-FL-IFN-λ1 (FL-IFN-λ1; open areas, thin lines; panels E, F, G and H) or the pEF-FL-IFN-λ2 (FL-IFN-λ2; shaded areas, thin lines; panel I). […] Cells expressing both chains were co-incubated with either FL-IFN-λ1 or FL-IFN-λ2 ([…] of conditioned media from COS cells expressing FL-IFN-λ1/2) and with E. coli produced IFN-λ1 lacking the FLAG epitope (IFN-λ1E. coli, 1 mg/ml) (open areas, thin lines; panels H and I). Ligand binding to the cell surface was determined by flow cytometry with anti-FLAG antibody (Sigma) as the primary antibody and fluorescein isothiocyanate-conjugated goat anti-mouse IgG (Santa Cruz) as the secondary antibody. The ordinate represents relative cell numbers, and the abscissa relative fluorescence (logarithmic scale).

[3] = target: T2, intact human CRF2-4 chain expressed alone on hamster 16-9 cells (human, UniProt Q08334 20-325); assay: as above
T2 construct: whole, on cells; From plasmid pEF-CRF2-4 (pEF-IL-10R2), on hamster 16-9 cells without CRF2-12/γR1; also called IL-10R2
T2 sequence (looked up): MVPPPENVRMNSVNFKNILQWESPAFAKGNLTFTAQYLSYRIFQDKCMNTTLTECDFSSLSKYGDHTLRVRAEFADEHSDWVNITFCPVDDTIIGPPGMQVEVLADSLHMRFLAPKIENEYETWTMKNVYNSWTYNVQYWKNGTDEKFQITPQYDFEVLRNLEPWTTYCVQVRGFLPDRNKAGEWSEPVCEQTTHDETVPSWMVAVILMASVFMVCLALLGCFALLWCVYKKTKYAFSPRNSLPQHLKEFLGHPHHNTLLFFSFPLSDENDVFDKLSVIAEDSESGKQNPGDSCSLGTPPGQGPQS
Description: as §1

[4] = target: the molecule itself; assay: crosslinking of the 32P-labeled ligand to itself in solution, SDS-PAGE
Description: (§2) Untreated 32P-labeled FL-IFN-λ1-P ([32P]FL-IFN-λ1-P) was loaded as a control (lane 1). ([32P]FL-IFN-λ1-P) was also incubated in DMEM medium with 10% FBS and crosslinking in solution was performed as described (32) (lane 2). The untransfected and transfected hamster cells described in FIG. 22 row 1 were incubated with 32P-labeled FL-IFN-λ1-P with or without addition of a 100-fold excess of unlabeled IFN-λ1 (competitor), washed, harvested and crosslinked. The extracted crosslinked complexes were analyzed on 7.5% SDS-PAGE. The molecular weight markers are shown on the left.
(§3) In another embodiment of the present invention, the interaction between IFN-λ and its receptor was characterized by crosslinking (FIG. 22). Crosslinking experiments were performed with radiolabeled IFN-λ (FIGS. 20B and C) and the IFN-λ receptor chains expressed in hamster cells (FIG. 22). COS cell-expressed FL-IFN-λ1-P was purified to homogeneity and radiolabeled (FIGS. 20B and C). […] FL-IFN-λ1-P was labeled with [32P]ATP and used for crosslinking to cells as described (Li, et al., (1989) Proc Natl Acad Sci USA 86, 558-562; Kotenko, et al., (1995) J Biol Chem 270, 20915-20921; Pestka, et al., (1999) Protein Expr Purif 17, 203-214; Kotenko, et al., (2001) J Immunol 166, 7096-7103).

[5] = target: T1, chimeric human CRF2-12/γR1 chain …; assay: crosslinking of 32P-labeled ligand to transfected hamster cells, 7.5% SDS-PAGE
Description: as §2
as §3, with “7096-7103). […]” for “7096-7103).”

[6] = target: T2, intact human CRF2-4 chain expressed …; assay: as above
Description: as §2
as §3, with “7096-7103). […]” for “7096-7103).”

FLAG tagged chimeric IL-10R1/CRF2-12 receptor (IL-10R1 extracellular domain fused to the transmembrane and intracellular domains of CRF2-12) on HT-29 cells (human), sequence (Q13651 other isoform, or with tags, fused parts or gaps mutant limits assumed): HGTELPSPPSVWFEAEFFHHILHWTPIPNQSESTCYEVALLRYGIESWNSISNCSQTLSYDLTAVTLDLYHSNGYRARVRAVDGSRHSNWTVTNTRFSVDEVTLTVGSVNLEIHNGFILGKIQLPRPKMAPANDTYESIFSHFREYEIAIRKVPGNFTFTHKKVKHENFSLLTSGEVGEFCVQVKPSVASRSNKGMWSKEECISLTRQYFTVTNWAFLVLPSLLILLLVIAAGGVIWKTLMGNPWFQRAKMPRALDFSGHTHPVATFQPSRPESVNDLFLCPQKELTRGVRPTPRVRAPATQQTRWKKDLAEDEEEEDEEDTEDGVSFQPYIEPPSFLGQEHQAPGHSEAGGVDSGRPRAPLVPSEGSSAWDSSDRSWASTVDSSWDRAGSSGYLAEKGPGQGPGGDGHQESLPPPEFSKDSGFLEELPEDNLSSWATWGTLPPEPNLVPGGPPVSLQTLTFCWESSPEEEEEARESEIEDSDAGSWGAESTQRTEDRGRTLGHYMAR

Molecule “IL-10 (from UniProt P22301 19-178) (ligand)” has an MHC class I antigen induction and antiviral activity of HT-29 cells expressing FL-IL-10R1/CRF2-12 [1] of 1 ng/mL and an apoptosis of HT-29 cells expressing FL-IL-10R1/CRF2-12 [1] of over 10 ng/mL.

B1: FL-IFN-λ1 (IFN-λ1 tagged at its N-terminus with the FLAG epitope) (ligand, not shown: small tags and cut ends)
chain: PTSKPTPTGKGCHIGRFKSLSPQELASFKKARDALEESLKLKNWSCSSPVFPGNWDLRLLQVRERPVALEAELALTLKVLEAAAGPALEDVLDQPLHTLHHILSQLQACIQPQPTAGPRPRGRLHHWLHRLQEAPKKESAGCLEASVTFNLFRLLTRDLKYVADGNLCLRTSTHPEST
notes: Used as conditioned medium of transiently transfected COS-1 cells; also called FL-IFN-λ1gene product
B1: no binding [2]; no binding [3].

B2: 32P-labeled FL-IFN-λ1-P (ligand, not shown: small tags and cut ends)
chain: PTSKPTPTGKGCHIGRFKSLSPQELASFKKARDALEESLKLKNWSCSSPVFPGNWDLRLLQVRERPVALEAELALTLKVLEAAAGPALEDVLDQPLHTLHHILSQLQACIQPQPTAGPRPRGRLHHWLHRLQEAPKKESAGCLEASVTFNLFRLLTRDLKYVADGNLCLRTSTHPESTRRASVA
modifications: labeled with [32P]ATP on the C-terminal Arg-Arg-Ala-Ser-Val-Ala tag (consensus site of the cAMP-dependent protein kinase)
notes: Expressed in COS cells, purified on anti-FLAG M1 gel and radiolabeled; Primer ifnl-7R may encode extra junction residues before the RRASVA tag; also called [32P]FL-IFN-λ1-P; radiolabeled IFN-λ
B2: no binding [4]; no binding [5]; no binding [6].

— patent publication US20090220511A1 (RUTGERS THE STATE UNIVERSITY OF NEW JERSEY, published 2009)
